The text below walks through data of patent publication US20180289766A1 (HONG KONG BAPTIST UNIVERSITY, published 2018).

Holding throughout (assay): cell-based or functional assay
In assay [1] the target is T1, human galanin receptor 2 (hGalR2) (human, UniProt O43603 1-387).
T1 sequence (looked up): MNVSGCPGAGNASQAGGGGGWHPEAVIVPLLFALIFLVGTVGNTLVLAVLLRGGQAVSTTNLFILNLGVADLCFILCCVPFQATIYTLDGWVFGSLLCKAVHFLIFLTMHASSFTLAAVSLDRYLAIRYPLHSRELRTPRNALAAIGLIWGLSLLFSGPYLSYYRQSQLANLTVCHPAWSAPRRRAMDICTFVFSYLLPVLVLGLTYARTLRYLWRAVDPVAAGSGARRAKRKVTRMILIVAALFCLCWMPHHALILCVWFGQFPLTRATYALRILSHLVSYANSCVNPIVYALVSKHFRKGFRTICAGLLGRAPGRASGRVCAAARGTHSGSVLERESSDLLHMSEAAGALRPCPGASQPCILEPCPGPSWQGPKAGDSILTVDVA

In assay [2] the target is T2, human galanin receptor 3 (hGalR3) (human, UniProt O60755 1-368).
T2 sequence (looked up): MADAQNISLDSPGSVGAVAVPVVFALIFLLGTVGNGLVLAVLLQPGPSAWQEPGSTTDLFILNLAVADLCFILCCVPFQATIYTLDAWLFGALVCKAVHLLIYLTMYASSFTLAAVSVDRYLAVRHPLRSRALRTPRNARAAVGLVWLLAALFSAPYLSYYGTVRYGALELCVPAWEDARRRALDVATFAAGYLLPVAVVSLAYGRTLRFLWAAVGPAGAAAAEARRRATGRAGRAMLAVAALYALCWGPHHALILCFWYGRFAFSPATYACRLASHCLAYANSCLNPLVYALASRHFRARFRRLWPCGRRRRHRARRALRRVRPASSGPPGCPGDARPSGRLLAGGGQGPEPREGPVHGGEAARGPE

For assay [3], the target named is T3, human galanin receptor 1 (hGalR1) (human, UniProt P47211 1-349).
T3 sequence (looked up): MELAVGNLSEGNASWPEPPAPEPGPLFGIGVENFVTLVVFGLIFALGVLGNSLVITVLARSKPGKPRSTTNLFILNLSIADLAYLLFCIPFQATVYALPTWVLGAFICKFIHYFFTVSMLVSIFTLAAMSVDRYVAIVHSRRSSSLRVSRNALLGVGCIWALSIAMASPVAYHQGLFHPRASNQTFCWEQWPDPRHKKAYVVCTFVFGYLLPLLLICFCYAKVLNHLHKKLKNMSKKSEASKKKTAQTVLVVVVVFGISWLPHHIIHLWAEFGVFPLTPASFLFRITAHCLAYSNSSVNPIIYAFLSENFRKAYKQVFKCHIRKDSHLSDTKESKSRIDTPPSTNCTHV

Positions of bridges follow the written chain, without caps; N, C: chain ends. No end group written: not given here.

B1: LH101 (Ac) (peptide)
peptide: Ac-CWTPQAMLYLKGCQ-NH2
modifications: disulfide 1-13
SMILES: CSCC[C@@H]1NC(=O)[C@H](C)NC(=O)[C@H](CCC(N)=O)NC(=O)[C@@H]2CCCN2C(=O)[C@H]([C@@H](C)O)NC(=O)[C@H](Cc2c[nH]c3ccccc23)NC(=O)[C@@H](NC(C)=O)CSSC[C@@H](C(=O)N[C@@H](CCC(N)=O)C(N)=O)NC(=O)CNC(=O)[C@H](CCCCN)NC(=O)[C@H](CC(C)C)NC(=O)[C@H](Cc2ccc(O)cc2)NC(=O)[C@H](CC(C)C)NC1=O
B1: in assay [1], the “EC50, receptor activation (SRE-Luc assay)” value (“EC50, receptor activation” below) was 380 nM and the “Emax, receptor activation (SRE-Luc assay)” value (shortened to “Emax, receptor activation”) is 0.97 relative to hSPX Emax. Besides, in assay [2], the “EC50, receptor activation” value turned out to be 390 nM and the “Emax, receptor activation” value was 1 relative to hSPX Emax.
As to NWTCQAMLYLKGAQ-NH2 [hSPX (C4)], in assay [1], the “EC50, receptor activation” value was 470 nM and the “Emax, receptor activation” value is 0.98 relative to hSPX Emax. In addition, in assay [2], the “EC50, receptor activation” value is 770 nM and the “Emax, receptor activation” value was 0.91 relative to hSPX Emax.

B2: LH101 (peptide)
peptide: CWTPQAMLYLKGCQ-NH2
modifications: disulfide 1-13; N-terminus assumed
SMILES: CSCC[C@@H]1NC(=O)[C@H](C)NC(=O)[C@H](CCC(N)=O)NC(=O)[C@@H]2CCCN2C(=O)[C@H]([C@@H](C)O)NC(=O)[C@H](Cc2c[nH]c3ccccc23)NC(=O)[C@@H](N)CSSC[C@@H](C(=O)N[C@@H](CCC(N)=O)C(N)=O)NC(=O)CNC(=O)[C@H](CCCCN)NC(=O)[C@H](CC(C)C)NC(=O)[C@H](Cc2ccc(O)cc2)NC(=O)[C@H](CC(C)C)NC1=O
Turning to B2, in assay [1], the “EC50, receptor activation” value was found to be 1190 nM and the “Emax, receptor activation” value was 1.09 relative to hSPX Emax. Further, in assay [2], the “EC50, receptor activation” value is 1560 nM and the “Emax, receptor activation” value is 1.04 relative to hSPX Emax.

B3: LH201 (peptide)
peptide: CWTLNSAGYLLGCHAV-NH2
modifications: disulfide 1-13; N-terminus assumed
SMILES: CC(C)C[C@@H]1NC(=O)[C@H](CC(C)C)NC(=O)[C@H](Cc2ccc(O)cc2)NC(=O)CNC(=O)[C@H](C)NC(=O)[C@H](CO)NC(=O)[C@H](CC(N)=O)NC(=O)[C@H](CC(C)C)NC(=O)[C@H]([C@@H](C)O)NC(=O)[C@H](Cc2c[nH]c3ccccc23)NC(=O)[C@@H](N)CSSC[C@@H](C(=O)N[C@@H](Cc2c[nH]cn2)C(=O)N[C@@H](C)C(=O)N[C@H](C(N)=O)C(C)C)NC(=O)CNC1=O
Regarding B3, the “EC50, receptor activation” value was 120 nM in assay [1], more than 10000 nM in assay [3] and more than 10000 nM in assay [2]. Moreover, the “Emax, receptor activation” value was 1 relative to hSPX Emax in assay [1], 0.35 relative to hGAL Emax in assay [3] and 0.55 relative to hSPX Emax in assay [2].

B4: LH102 (peptide)
peptide: NWTCQAMLYLKGCQ-NH2
modifications: disulfide 4-13; N-terminus assumed
SMILES: CSCC[C@@H]1NC(=O)[C@H](C)NC(=O)[C@H](CCC(N)=O)NC(=O)[C@@H](NC(=O)[C@@H](NC(=O)[C@H](Cc2c[nH]c3ccccc23)NC(=O)[C@@H](N)CC(N)=O)[C@@H](C)O)CSSC[C@@H](C(=O)N[C@@H](CCC(N)=O)C(N)=O)NC(=O)CNC(=O)[C@H](CCCCN)NC(=O)[C@H](CC(C)C)NC(=O)[C@H](Cc2ccc(O)cc2)NC(=O)[C@H](CC(C)C)NC1=O
As to B4, the “EC50, receptor activation” value came out at 1430 nM in assay [1] and 1500 nM in assay [2]. The “Emax, receptor activation” value in assay [1] is 1.08 relative to hSPX Emax; in assay [2] it was 0.87 relative to hSPX Emax.
For CWTPQAMLYLKGAQ-NH2 [hSPX (C1)], in assay [1], the “EC50, receptor activation” value is 510 nM and the “Emax, receptor activation” value is 1.05 relative to hSPX Emax. In addition, in assay [2], the “EC50, receptor activation” value turned out to be 360 nM and the “Emax, receptor activation” value was 1 relative to hSPX Emax.
On the same counts, the results for NWTPQAMLYLKGCQ-NH2 [hSPX (C13)] are 370 nM, 0.87 relative to hSPX Emax, 630 nM and 0.88 relative to hSPX Emax.
Regarding Ac-CWTLNSAGYLLGCHAV-NH2 (disulfide 1-13) [LH201 (Ac)], in assay [1], the “EC50, receptor activation” value came out at 480 nM. The “Emax, receptor activation” value was 1.16 relative to hSPX Emax in assay [1], 0.22 relative to hGAL Emax in assay [3] and 0.2 relative to hSPX Emax in assay [2].
With GWTLNSAGYLLGPHAV-NH2 [human galanin (1-16), hGAL (1-16)], in assay [1], the “EC50, receptor activation” value is 220 nM and the “Emax, receptor activation” value is 1.02 relative to hSPX Emax. Besides, in assay [2], the “EC50, receptor activation” value is more than 10000 nM and the “Emax, receptor activation” value is 0.45 relative to hSPX Emax.
For the molecule GWTLNSAGYLLGPHAVGNHRSFSDKNGLTS-NH2 [human galanin (hGAL)], the “Emax, receptor activation” value in assay [2] was 0.68 relative to hSPX Emax.
